According to the DeepSol protein solubility set:

assay: soluble on expression in E. coli; label from the status in PepcDB or PDB records

Q: For “MSQIEKKQLQLGYIPLLDCIALLWAKERGYFEEMGLDVTLVKEASWASLRDRLAFGILDAAHCLSAMLPAAAIGEDQIGIPLKTPLVLSKNRAYISLSQKLCYELSIQNADNAQENSAKLVKYLEQEQSIALAHVFHHSIHHYCLREWLALSHLDLAKAIQLKTLPPPYMLDALASASIDGFCVGEPWNTQGEIEGYSQIVASSRDIIPEVADKVLAVTEEWAAHHPNTVIALTAAILKAQQELETLSNLEPVWQILINFNIVRFQCSKSVHVKSYHALEQIIRHLVVGQAAPCSEDMLWLFGQMQKWHDLTIETTALNELSQRCIDQNSFEKAMQHVQSNTGLEHHHHHH”, which “soluble on expression in E. coli” value is on record?
A: The value was “not soluble”.

Q: With “MGSDKIHHHHHHMNTPREVTLHFLRTAGHPLTRWALQRQPPSPKQLEEEFLKIPSNFVSPEDLDIPGHASKDRYKTILPNPQSRVCLGRAQSQEDGDYINANYIRGYDGKEKVYIATQGPMPNTVSDFWEMVWQEEVSLIVMLTQLREGKEKCVHYWPTEEETYGPFQIRIQDMKECPEYTVRQLTIQYQEERRSVKHILFSAWPDHQTPESAGPLLRLVAEVEESPETAAHPGPIVVHCSAGIGRTGCFIATRIGCQQLKARGEVDILGIVCQLRLDRGGMIQTAEQYQFLHHTLALYAGQLPEEPSP” as the sequence, how does the “soluble on expression in E. coli” value read?
A: The value was “soluble”.

Q: Which “soluble on expression in E. coli” value does the source give for “SMMDLFETGSYFFYLDGENVTLQPLEVAEGSPLYPGSDGTLSPCQDQMPPEAGSDSSGEEHVLAPPGLQPPHCPGQCLIWACKTCKRKSAPTDRRKAATLRERRRLKKINEAFEALKRRTVANPNQRLPKVEILRSAISYIERLQDLLHRLDQQEKMQELGVDPFSYRPKQENLEGADFLRTCSSQWPSVSDHSRGLVITAKEGGASIDSSASSSLRCLSSIVDSISSEERKLPCVEEVVEK” here?
A: The value was “soluble”.

Q: With “AIAGELTDALLGKGALKTRFGSLLGQGDWGGVRVSQVEVRWVIFCLLHWLHVNLPVTEYLALDVLFPLAIVQKHSIL” as the sequence, how does the “soluble on expression in E. coli” value read?
A: Its value is “soluble”.

Q: With “MAHHHHHHMPLTCRSFCEWALAYMGTQEYTPSIIQQRNSMAAAERDPDDRNVLDFSTYEDYLDQQVTGEDLFYLEDQDAARKIVELGYKGKDVLSREEFEAAQYLARTGPLKRRESAEVITSAGKDVSDSPLLTALAKREELVRTGKLATVLFLRDYVSGQEVSAYIDYGYRLRSENFEAYFKKDKKLLPKRSDLSYYNWKTHTLFYNNSPTFQVLADSTLGLVMKHKRDRKAIHVDPNSPSPGENCSRTVVPCKDYLQAVIYDHVTRRKN” as the sequence, how does the “soluble on expression in E. coli” value read?
A: Its value is “soluble”.

Q: With “MSLEFFMAKADNPAFEQGQSPRMRLPDSVPLLIVGGGIMGLWAAVKAERLGIGTLLVEAGRLGGGASGGLLGALMPHMPDRWSDKKQFQFDALVALEAEIAGLEAETGLSGGYRRCGRIIPLPKPHLRGIAERHERDAAENWRSGERRFQWHVGERPSVAGWVDDAAGEAGFVFDTLAARVSPRALIALLSAFLRKARHVQVAEGCRVVSLDADAGRAALSSGEEISFGHVVVANGHESFPLIRDALGLEAGVALGQAVKGQAALLDASADPAMPVVFLNGLYIVPHEDGTVAIGSTSEDCFSEPFSTDEKLEKLLVDACTVVPSLAGAPVLERWAGLRPKAVGRDPMVGAMAGTAKLVALSGGFKVSFGLAHFLADAALETVCGHTPVIPSGFRLQEHVSIAVPDFRKFLEHHHHHH” as the sequence, how does the “soluble on expression in E. coli” value read?
A: The value was “not soluble”.

Q: For “MGSDKIHHHHHHMFSIGKHSDFTPSCVSRMLGDLHFVNQGTAMKFSRYFFSLLTTLPLLACTQVEAPVPEALSQSTGHTAGAAQPQESVIGGSLPIGDSSRTSLDWQGSYEGVVPCASCEGIKTRLTLNNDGTYLLQSQYLGKEQDGKEPKVFEEQGKFSWNASGGAIQLENGAWYQVGENQLFMLDREGKRITGVLAGHYRLLKKQSALLPRF”, which “soluble on expression in E. coli” value is on record?
A: The value was “not soluble”.

Q: With “MMRTWQSKLHVTQHEVKLLVTCPEQGDVLKARLPPHARHPRALLTLLEGLSLYNGQPQRIALHVDERFRLTAGLFGDELWPGESPLVQYDVAHRARQCGRLSGIGDFRALRRGSP” as the sequence, how does the “soluble on expression in E. coli” value read?
A: Its value is “not soluble”.

Q: For “GPGSMSTEDASIAYAKKHKIHHLFELMATKVLLNRPENPFAYLRNLLKDVEESEKNRVPYDPTEVHFNNDVGAAAPAAGNSGGSGAAAPAAALTSAKKEKRTVTLATFGLDRAGKTCALSVLESGEADKKYTPTVGFAPIKFPLDDYNLCVFDLGGAANFRGIWVHYYHDCFGIVYVIDSAASDERVAESLKVLHETLQHPYVKGKPLLVLANKKDLPESRGVGVVPQGFLEEAMGEPGAPHRVLATCAIEDDPVLVEGIEWLLEAVSKEYDTLAKRVAKDSNEVKSEKARQRAARLAAIRGEDR”, which “soluble on expression in E. coli” value is on record?
A: The value was “soluble”.

Q: Which “soluble on expression in E. coli” value does the source give for “HVYILGKIPSPLTLIKAFADVRPSFVIMVPLIIEKLYHKAIAPKIKTPLIKFLLRLPVLKKVIHKSIRSKLIESFGGNFRQIIIGGAALNDEVAHFLYRIGFPLTVG” here?
A: Its value is “not soluble”.

Q: For “MKKIQTPNAKGEVRIIAGLWRGRKLPVLNSEGLRPTGDRVKETLFNWLMPYIHQSECLDGFAGSGSLGFEALSRQAKKVTFLELDKTVANQLKKNLQTLKCSSEQAEVINQSSLDFLKQPQNQPHFDVVFLDPPFHFNLAEQAISLLCENNWLKPNALIYVETEKDKPLITPENWTLLKEKTTGIVSYRLYQNLEHHHHHH”, which “soluble on expression in E. coli” value is on record?
A: Its value is “soluble”.

Q: For “MGSDKIHHHHHHLGESGKNFDHRRGWVESRLFELEAVFAIDVAAFAVMSNHLHVVLRIDIETANCWTDREVLEQWHKLFNGDEITQKFVKGEVVETHEVLRLKHSIATYRSRLCDISWFMRCLNEPIARQANQEDSCTGRFWEGRFKSQALLDEAAVLACMAYVDLNPIRAKMASTPEQSDHTSIQLRIQAALRGEQPISLLPFIGNERKNQPKGIAFSLQDYLELVDDTGRIIRNDKHGAISTNSAKLLTRLNIFQENWLKLTTEFGKLFHGPVGTLQELTSYCEHLEKRRRHFASCCQHLMAS”, which “soluble on expression in E. coli” value is on record?
A: The value was “not soluble”.

Q: For “MLSTNNITMQFGSKPLFENISVKFGGGNRYGLIGANGCGKSTFMKILGGDLVPSGGNVFLDPNERLGKLRQDQFAFENNTVLDTVIMGHGELWEVKEERDRIYAMAEMSEEDGYKVADLEVAYGEMDGYSAEARAGELLLGVGIPVEQHYGLMSEIAPGWKLRVLLAQALFSDPEILLLDEPTNNLDIDTIRWLEQVLNERNSTMIIISHDRHFLNMVCTHMADLDYGELRVYPGNYDEYMTAATQARERLLSDNAKKKAQISELQSFVSRFSANASKSKQATSRARQIDKIQLDEVKASSRQNPFIRFDQDRKLFRNALEVEMLTKGFDNGPLFKNLTLRLEVGEKVAILGPNGIGKSTLLKTLLGEYESDAGTVKWSENSKIGYYAQDHASDFDIDLTVFDWMSQWKQEKDDEQAVRSVLGRLLFSQDDIKKKVSVLSGGEKGRMLFGKLMMQRPNILVMDEPTNHLDMESIESLNMALEMYEGTLIFVSHDREFVSSLATRVIEMTPNKLIDFTGNYEDYLSSQGIHS”, which “soluble on expression in E. coli” value is on record?
A: The value was “not soluble”.

Q: With “GMSHVSYAEPPAQGWDIHCHTVFSDGTETPRTLVEQARKLGLHGVAIADHDTTAGWDEATEASEEIGLPLLLGTEITAVDEDVSVHMLAFQYDPSNEHISSMFANTRAARLRRTKRMVERLSQDFPITWDDVLAQVKEGERTTIGRPHIADALVAAGVYETRSDAFADAVSAKSKYYIPTPSPSTHEVIAAVKGAGGVVVAAHAGDPQRNRRLLSDEQLDAMIADGLDGLEVWHRGNPPEQRERLLTIAARHDLLVTGGSDWHGKGKPNGLGENLTDDDTVREILCRGVDLIGRVGSSHAA” as the sequence, how does the “soluble on expression in E. coli” value read?
A: Its value is “soluble”.

Q: Which “soluble on expression in E. coli” value does the source give for “GTQPTFGFTVNWKFSESTTVFTGQCFIDRNGKEVLKTMWLLRSSVNDIGDDWKATRVGINIFTRLRTQKEGGSGGSARKCSLTGKWTNDLGSNMTIGAVNSRGEFTGTYITAVTATSNEIKESPLHGTQNTINKSGGSTTVFTGQCFIDRNGKEVLKTMWLLRSSVNDIGDDWKATRVGINIFTRLRTQKEGGSGGSARKCSLTGKWTNDLGSNMTIGAVNSRGEFTGTYITAVTATSNEIKESPLHGTQNTINKRTQPTFGFTVNWKFSE” here?
A: The value was “soluble”.

Q: For “MQDEVETEVIIKDIFKQGKICFIPQYQFQSNHMDMVRLTSPEEIALLPKTSWNIHQPGEGDVREEALSTGGLDLIFLPGLGFDKDGNRLGRGKGYYDTYLKRCVQHQEVKPYTMALAFKEQICPQIPVDEHDMKVDEVLYEDSPAS”, which “soluble on expression in E. coli” value is on record?
A: Its value is “soluble”.

Q: For “MGNWAEITDEISKIYQDNQYKIRQINDVDAVSDKRREALQALFEHTGRNVIVYYSAWLENGRRFSGQSTDFSVNDTDKNSFMTALHKLDQSKGLDLILHTPGGDVAATESLVDYIHALFGQDFRVIVPQLAMSAGTMIALSSKEIVMGKHSSLGPIDPQFNGLPAHGLLEEFEQAKKEVSENPQTAHIWQVILNKYNPTMLGEAKKAIQWSNSMVKQWLEKGMFLDEPDKEEKATRAIKELADHSVTLAHNRHISVSKALELGLNIKELESDPKLQDLVLTLHHLSVIAAQRGPLIKFVVNHDNRGTFLQGHEN”, which “soluble on expression in E. coli” value is on record?
A: The value was “soluble”.

Q: For “MGSDKIHHHHHHMDEVLSFKRGRVPLLISMPHPGTRLTPAVDAGLVEEARALTDTDWHIPRLYDFAEELGASTLAAHYSRYVVDLNRPSDDKPLYSTATTGLYPDTLFDGRPLYREGMAPSAEERMRYLAEVWTPYHRTIAEELARLKAEFGYALLWDAHSIRSHVPHLFDGRLPDFNLGTNAGASCDPALAARLEAVCAAAEGYSHVLNGRFKGGHITRHYGQPEQHVHAVQLELAQCTYMDEQAPFAYRADLAEATRAVIRELLESLLAWGRERYA”, which “soluble on expression in E. coli” value is on record?
A: Its value is “not soluble”.

Q: For “MGSDKIHHHHHHMSLQFDHETLGQRVLFGSGEAAQNLAAEISRLDAKNVMVVAGDFELPMARQVAADIDVKVWHSNVVMHVPIETAEEARSVAKENDIDVVVCVGGGSTTGLAKAIAMTTALPIIAVPTTYAGSEATNVWGLTEAARKTTGVDNKVLPVTVIYDSALTMSLPVEMSVASGLNGLAHCIDSLWGPKADPINAAMAAEGIRALSAGLPKIVADAQDVDGRDEALYGAYLAAVSFASAGSGLHHKICHVLGGTFNLPHAQTHATVLPYVLAFNAPYAPQAEQRAAAAFGSATALEGLQQLRAQVGAPQRLSDYGFTAAGIPEAVEIILEKVPANNPRTVTEENLTALLTTALNGDDPATLN”, which “soluble on expression in E. coli” value is on record?
A: Its value is “not soluble”.

Q: With “MAHHHHHHMHQLRTFNYVASELGHDEPVLHAVFVTHRCLPPDPPEVNFTTAIPQTVTAASRRTSSDDASIGAAVHVEKTVVLSVEDTLAAPLEVALTVEQELAQLSKKLDAWKVQRLADLQARGGERSPSRLAQMEAAMERRLALRRIEEQDRAQKRVDALLSYLGPRIDKQLQLVAREHDGEEALSSSYARVETTSDVKDSACADKSAASAATPSPPSPRARILCDQQYFVKRQEIALEERGARQAVLRNMWDARRLAHLVEDEVSFRHSIEAREVVWRDRVHSELRASVEMDHV” as the sequence, how does the “soluble on expression in E. coli” value read?
A: The value was “not soluble”.

Q: With “GPGGGSEAYFRVESGALGPEENFLSLDDILMSHEKLPVRTETAMPRLGAFFLERSAGAETDNAVPQGSKLELPLWLAKGLFDNKRRILSVELPKIYQEGWRTVFSADPNVVDLHKMGPHFYGFGSQLLHFDSPENADISQSLLQTFIGRFRRIMDSSQNAYNEDTSALVARLDEMERGLFQTGQKGLNDFQCWEKGQASQITASNLVQNYKKRKFTDMED” as the sequence, how does the “soluble on expression in E. coli” value read?
A: The value was “soluble”.

Q: Which “soluble on expression in E. coli” value does the source give for “MSKSVSIPQALSDLKRTSLRRLSSARGVGNKKTVVSTSTPLSGFVILVEREEKVVRLYGTAAERAGLSIGDEIVGVNDMKIEGKSYEEVTTYIQECIRRKIIQLKVRRRALEIPAENEASVFNCTNSNRMITDAYLVSVDKDHIKEVTKRLKK” here?
A: Its value is “not soluble”.

Q: For “DKREYFVYLPPTYGKGDNHYSVIYMQDGDIVIKILNELMDLIENKSKKDVYDESIIVGVKPIVRNDDYTPWEAEAISKGSSEFGGRGDIYLNFLIKKLKPYIDNKYRTKKEKN”, which “soluble on expression in E. coli” value is on record?
A: Its value is “not soluble”.

Q: Which “soluble on expression in E. coli” value does the source give for “GMGRILREGAGWRLGWDETAHRYPGLVGTTDWAVELTAAEMADFCRLVQQLAETIAAIAPELMPEERLQIEAESALLWLEAEGFADAYELRLILASDRRVEACWPAAAVPALVAATHTLKGF” here?
A: The value was “soluble”.
